Patent publication EP4480965A1, “TRANSFERRIN RECEPTOR-BINDING MOLECULES, CONJUGATES THEREOF AND THEIR USES TO PREVENT OR TREAT CNS DISEASES” (Vect-Horus, priority 2023, dated 2024)

Test system: murine SOD1 mRNA
Assay: CNS knock-down of SOD1 mRNA after systemic (SC or IV) administration (RT-qPCR)
Format: in vivo, C57Bl/6 mice
Details: SC QDx4 at 15 mg/kg (siRNA molar equivalent), one week after last dose
Description: VHH-siSOD1m-5'VP conjugates or heterodimeric VHH-hFc-siSOD1m-5'VP conjugates were generated and compared for their potential to trigger BBB-crossing and functional delivery in CNS tissues following systemic administration. Wild-type C57Bl/6 mice (4-8 per group) were administered with either four daily SC doses (QDx4) of unconjugated siSOD1m-5'VP or the C5-siSOD1m-5'VP conjugate at 15 mg/kg (siRNA molar equivalent), or three IV doses of the C5-hFc-siSOD1m-5'VP conjugate every two days (Q2Dx3) at 1.5 mg/kg (siRNA molar equivalent), compared to PBS injected mice. […] RNA samples were analyzed and dosed using a Fragment Analyzer RNA kit in a Fragment Analyzer system (Agilent). Relative RNA expression levels were quantified by RT-qPCR using the TaqMan™ Fast Universal PCR Master Mix (2X) no AmpErase™ LTNG kit (Applied Biosystems) and commercially available TaqMan™ probes for the target murine SOD1 and reference RpL13 and PUM1 genes (Applied Biosystems). Expression data were analyzed using the […]Cq method normalized to the expression of the reference RpL13 gene, for brain regions, or RpL13 and PUM1 genes for total brain, spinal cord, liver, kidney (multiplex qPCR), based on raw quantification cycle (Cq) values (Bustin et al.). The results are expressed as means ± standard error of the mean (SEM) and are presented as mRNA levels relative to the control animals injected with PBS. […]

B1: C5-siSOD1m-5'VP: TfR-binding VHH-siRNA conjugate wherein VHH is C5 (conjugate)
VHH: EVQLVESGGGVVQPGGSLKLSCVASGTDFSINFIRWYRQAPGKQREFVAGFTATGNTNYADSMKGRFTISRDNTKNAVYLQIDSLKPEDTAVYYCYMLDKWGQGTQVTVSSAAAEQKLISEEDLNGAAHHHHHHGS
SOD1 mRNA KD in total brain and spinal cord: 30-40%
